Target: Flag–UBR4 (UBR4 tagged at its endogenous locus) (human (endogenous in HEK293T)) (UniProt Q5T4S7)
Test: cryo-EM structure; endogenous SIFI immunoprecipitated through tagged UBR4 from HEK293T and run on Superose 6 SEC; the complex formed in cells and was co-purified; single-particle cryo-EM, AF2 models fitted in low-resolution regions

Sequence of Flag–UBR4 (UBR4 tagged at its endogenous locus), Q5T4S7-1 1-5183 (enzyme) (Q5T4S7 whole entry): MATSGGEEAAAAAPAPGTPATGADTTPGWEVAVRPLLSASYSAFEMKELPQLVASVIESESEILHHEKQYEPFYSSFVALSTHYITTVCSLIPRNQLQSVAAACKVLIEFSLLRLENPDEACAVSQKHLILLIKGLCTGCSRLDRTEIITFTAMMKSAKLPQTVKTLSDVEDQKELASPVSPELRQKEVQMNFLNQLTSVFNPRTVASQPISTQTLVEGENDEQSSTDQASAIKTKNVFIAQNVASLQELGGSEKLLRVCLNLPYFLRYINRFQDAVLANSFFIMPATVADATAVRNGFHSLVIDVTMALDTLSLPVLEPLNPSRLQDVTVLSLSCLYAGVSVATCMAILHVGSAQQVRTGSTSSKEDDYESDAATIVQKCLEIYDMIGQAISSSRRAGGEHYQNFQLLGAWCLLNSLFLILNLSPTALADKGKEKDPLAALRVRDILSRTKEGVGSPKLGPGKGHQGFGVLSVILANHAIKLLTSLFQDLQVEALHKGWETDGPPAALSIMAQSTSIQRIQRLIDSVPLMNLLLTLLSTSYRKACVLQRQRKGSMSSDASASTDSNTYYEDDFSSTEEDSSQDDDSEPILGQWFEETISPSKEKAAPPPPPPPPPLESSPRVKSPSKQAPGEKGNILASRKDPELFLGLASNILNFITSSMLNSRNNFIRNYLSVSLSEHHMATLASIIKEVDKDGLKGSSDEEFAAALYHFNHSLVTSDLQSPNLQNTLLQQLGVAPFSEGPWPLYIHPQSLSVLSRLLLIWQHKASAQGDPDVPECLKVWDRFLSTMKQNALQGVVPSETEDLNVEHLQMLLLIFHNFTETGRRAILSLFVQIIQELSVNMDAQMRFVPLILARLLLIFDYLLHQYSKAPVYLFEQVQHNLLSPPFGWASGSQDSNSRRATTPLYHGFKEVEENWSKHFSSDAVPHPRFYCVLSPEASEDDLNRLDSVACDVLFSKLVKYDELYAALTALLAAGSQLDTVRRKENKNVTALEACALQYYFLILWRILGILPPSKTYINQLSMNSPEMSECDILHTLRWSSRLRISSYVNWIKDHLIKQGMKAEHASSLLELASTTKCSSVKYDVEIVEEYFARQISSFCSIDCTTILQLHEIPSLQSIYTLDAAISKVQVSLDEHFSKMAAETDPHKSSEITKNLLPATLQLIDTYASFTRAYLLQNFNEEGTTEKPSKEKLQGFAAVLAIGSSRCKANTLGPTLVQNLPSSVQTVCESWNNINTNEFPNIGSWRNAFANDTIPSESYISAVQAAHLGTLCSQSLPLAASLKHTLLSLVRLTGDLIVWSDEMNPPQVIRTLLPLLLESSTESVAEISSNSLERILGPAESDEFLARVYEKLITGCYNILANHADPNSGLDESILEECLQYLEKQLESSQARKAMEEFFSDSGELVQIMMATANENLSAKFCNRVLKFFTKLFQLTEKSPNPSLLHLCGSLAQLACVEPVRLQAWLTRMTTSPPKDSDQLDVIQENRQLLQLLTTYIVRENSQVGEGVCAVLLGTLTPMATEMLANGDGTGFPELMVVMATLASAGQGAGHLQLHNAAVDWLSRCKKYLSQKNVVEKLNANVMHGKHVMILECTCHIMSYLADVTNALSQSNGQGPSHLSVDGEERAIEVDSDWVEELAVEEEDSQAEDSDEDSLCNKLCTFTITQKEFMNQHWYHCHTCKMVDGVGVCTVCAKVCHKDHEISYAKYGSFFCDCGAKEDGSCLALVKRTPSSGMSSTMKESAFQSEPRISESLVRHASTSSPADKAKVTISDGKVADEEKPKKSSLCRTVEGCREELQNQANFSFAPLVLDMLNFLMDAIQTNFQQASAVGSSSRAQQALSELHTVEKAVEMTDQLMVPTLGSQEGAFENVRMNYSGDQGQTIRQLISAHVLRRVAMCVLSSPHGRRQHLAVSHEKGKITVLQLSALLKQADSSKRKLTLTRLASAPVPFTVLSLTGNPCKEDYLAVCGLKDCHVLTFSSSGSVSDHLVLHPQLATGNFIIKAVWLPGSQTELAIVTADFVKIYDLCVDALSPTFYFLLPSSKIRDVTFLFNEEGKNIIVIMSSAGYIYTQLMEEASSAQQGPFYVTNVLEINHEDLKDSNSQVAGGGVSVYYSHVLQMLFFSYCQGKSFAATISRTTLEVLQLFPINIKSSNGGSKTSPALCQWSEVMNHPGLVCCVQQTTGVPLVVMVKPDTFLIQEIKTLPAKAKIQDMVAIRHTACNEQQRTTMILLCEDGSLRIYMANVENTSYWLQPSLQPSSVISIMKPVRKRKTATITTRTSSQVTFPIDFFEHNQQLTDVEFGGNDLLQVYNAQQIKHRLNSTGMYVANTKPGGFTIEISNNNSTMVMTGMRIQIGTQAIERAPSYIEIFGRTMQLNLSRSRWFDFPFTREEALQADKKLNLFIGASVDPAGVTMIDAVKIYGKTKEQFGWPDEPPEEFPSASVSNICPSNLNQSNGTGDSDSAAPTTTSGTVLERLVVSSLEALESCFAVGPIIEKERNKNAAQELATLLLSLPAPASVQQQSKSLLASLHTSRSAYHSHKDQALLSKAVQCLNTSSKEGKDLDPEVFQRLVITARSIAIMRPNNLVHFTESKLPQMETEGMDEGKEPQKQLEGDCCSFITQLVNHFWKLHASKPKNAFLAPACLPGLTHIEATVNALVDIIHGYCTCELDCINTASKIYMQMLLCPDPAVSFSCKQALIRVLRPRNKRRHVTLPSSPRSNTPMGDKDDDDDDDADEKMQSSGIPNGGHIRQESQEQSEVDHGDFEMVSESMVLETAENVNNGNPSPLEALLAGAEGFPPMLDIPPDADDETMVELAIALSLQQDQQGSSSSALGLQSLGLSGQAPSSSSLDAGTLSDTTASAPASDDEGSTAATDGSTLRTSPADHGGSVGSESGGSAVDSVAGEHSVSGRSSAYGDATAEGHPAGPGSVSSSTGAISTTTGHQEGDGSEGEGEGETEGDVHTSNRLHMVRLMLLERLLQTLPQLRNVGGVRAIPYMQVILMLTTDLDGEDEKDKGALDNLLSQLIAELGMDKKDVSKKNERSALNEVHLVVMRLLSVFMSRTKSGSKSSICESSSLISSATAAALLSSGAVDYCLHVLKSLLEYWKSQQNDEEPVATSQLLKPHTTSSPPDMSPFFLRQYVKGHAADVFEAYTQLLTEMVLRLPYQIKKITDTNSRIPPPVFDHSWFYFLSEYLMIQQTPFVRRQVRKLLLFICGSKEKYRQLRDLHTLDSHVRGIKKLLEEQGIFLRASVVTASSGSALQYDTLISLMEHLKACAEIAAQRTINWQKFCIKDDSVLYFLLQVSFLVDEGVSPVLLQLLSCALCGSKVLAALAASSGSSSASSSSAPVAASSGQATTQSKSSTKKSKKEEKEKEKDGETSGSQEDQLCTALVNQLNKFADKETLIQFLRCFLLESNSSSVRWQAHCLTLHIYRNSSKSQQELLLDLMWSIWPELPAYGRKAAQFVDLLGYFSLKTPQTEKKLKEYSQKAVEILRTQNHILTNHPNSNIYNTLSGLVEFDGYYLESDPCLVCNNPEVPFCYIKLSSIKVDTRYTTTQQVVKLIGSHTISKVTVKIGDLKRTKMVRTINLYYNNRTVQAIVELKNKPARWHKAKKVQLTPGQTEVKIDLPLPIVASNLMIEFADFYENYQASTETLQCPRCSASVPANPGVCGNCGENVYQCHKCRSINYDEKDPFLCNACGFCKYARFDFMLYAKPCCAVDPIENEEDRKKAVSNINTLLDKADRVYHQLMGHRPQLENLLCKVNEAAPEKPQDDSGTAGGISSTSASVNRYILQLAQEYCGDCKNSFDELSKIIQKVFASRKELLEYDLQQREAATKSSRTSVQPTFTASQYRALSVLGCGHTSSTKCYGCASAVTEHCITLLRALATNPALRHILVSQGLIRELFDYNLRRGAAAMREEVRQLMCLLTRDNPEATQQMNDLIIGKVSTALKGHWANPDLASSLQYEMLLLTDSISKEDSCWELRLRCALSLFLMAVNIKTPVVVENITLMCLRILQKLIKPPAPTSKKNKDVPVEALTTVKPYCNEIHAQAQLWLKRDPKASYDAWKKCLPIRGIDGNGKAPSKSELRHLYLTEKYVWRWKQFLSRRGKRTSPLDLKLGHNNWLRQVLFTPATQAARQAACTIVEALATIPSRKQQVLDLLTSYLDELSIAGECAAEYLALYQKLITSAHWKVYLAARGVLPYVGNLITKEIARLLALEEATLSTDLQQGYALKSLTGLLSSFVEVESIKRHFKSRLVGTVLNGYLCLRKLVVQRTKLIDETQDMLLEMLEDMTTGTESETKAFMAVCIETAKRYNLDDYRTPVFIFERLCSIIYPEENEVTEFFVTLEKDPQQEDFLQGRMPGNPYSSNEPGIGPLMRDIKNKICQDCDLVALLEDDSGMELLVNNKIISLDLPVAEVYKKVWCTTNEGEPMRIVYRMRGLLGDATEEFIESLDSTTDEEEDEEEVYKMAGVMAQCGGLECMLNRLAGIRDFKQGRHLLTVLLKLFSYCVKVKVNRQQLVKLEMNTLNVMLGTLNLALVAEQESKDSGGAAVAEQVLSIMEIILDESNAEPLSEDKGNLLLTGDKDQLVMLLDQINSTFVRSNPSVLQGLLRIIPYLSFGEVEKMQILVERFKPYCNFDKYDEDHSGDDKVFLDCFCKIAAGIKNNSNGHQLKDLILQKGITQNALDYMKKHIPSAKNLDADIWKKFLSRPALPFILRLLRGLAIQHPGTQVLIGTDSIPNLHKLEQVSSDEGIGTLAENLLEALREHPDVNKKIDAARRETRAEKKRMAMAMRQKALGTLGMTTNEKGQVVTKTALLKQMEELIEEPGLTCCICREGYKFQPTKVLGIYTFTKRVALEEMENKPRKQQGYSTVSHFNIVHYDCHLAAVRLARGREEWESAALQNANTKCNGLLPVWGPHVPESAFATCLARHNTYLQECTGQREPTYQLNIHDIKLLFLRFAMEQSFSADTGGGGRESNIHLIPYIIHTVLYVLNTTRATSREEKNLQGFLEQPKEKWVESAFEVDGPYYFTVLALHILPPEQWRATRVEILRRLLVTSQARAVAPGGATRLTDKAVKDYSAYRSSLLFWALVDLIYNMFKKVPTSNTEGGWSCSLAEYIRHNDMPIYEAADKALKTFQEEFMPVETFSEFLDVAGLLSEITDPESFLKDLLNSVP

“Flag–UBR4 (UBR4 tagged at its endogenous locus), Q5T4S7-1 1-5183 (enzyme)” was tested, and the stoichiometry N was 2.

From publication PMC12286842
